Measurements reported in publication PMC7079103.

Assays:
Assay in all cases: HRP-coupled steady-state kinetics
Format in all cases: biochemical, Phanerodontia chrysosporium
Settings in all cases: apparent, 50 mM potassium phosphate pH 7.5, O2 as co-substrate
[1] = substrate: CCCCCC=O
[2] = substrate: OCCCCCCO
[3] = substrate: CC(O)CCCO
[4] = substrate: CC1CCC(O)O1
[5] = substrate: CCCCCCO
[6] = substrate: OCCCCCO
[7] = substrate: OCCOCCO

B1: alcohol oxidase from Phanerochaete chrysosporium (PcAOX; F101S-PcAOX = AOX*) (Phanerodontia chrysosporium; F101S) (protein)
chain: MGHPEEVDVIVCGGGPAGCVVAGRLAYADPTLKVMLIEGGANNRDDPWVYRPGIYVRNMQRNGINDKATFYTDTMASSYLRGRRSIVPCANILGGGSSINSQMYTRASASDWDDFKTEGWTCKDLLPLMKRLENYQKPCNNDTHGYDGPIAISNGGQIMPVAQDFLRAAHAIGVPYSDDIQDLTTAHGAEIWAKYINRHTGRRSDAATAYVHSVMDVQDNLFLRCNARVSRVLFDDNNKAVGVAYVPSRNRTHGGKLHETIVKARKMVVLSSGTLGTPQILERSGVGNGELLRQLGIKIVSDLPGVGEQYQDHYTTLSIYRVSNESITTDDFLRGVKDVQRELFTEWEVSPEKARLSSNAIDAGFKIRPTEEELKEMGPEFNELWNRYFKDKPDKPVMFGSIVAGAYADHTLLPPGKYITMFQYLEYPASRGKIHIKSQNPYVEPFFDSGFMNNKADFAPIRWSYKKTREVARRMDAFRGELTSHHPRFHPASPAACKDIDIETAKQIYPDGLTVGIHMGSWHQPSEPYKHDKVIEDIPYTEEDDKAIDDWVADHVETTWHSLGTCAMKPREQGGVVDKRLNVYGTQNLKCVDLSICPDNLGTNTYSSALLVGEKGADLIAEELGLKIKTPHAPVPHAPVPTGRPATQQVR
[1]
  Km: 0.20 mM
  kcat: 0.15 s⁻¹
  kcat/Km: 750 M ^-1 s^-1
[2]
  Km: 12.9 mM
  kcat: 4.07 s⁻¹
  kcat/Km: 316 M ^-1 s^-1
[3]
  Km: 52.6 mM
  kcat: 1.28 s⁻¹
  kcat/Km: 24.3 M ^-1 s^-1
[4]
  Km: 95.5 mM
  kcat: 1.13 s⁻¹
  kcat/Km: 11.8 M ^-1 s^-1
[5]
  Km: 3.0 mM
  kcat: 0.56 s⁻¹
  kcat/Km: 187 M ^-1 s^-1
[6]
  Km: 69.6 mM
  kcat: 3.48 s⁻¹
  kcat/Km: 50.0 M ^-1 s^-1
[7]
  Km: 12.3 mM
  kcat: 0.73 s⁻¹
  kcat/Km: 59.3 M ^-1 s^-1
